According to the DeepSol protein solubility set:

Test: soluble on expression in E. coli; label from the status in PepcDB or PDB records

Soluble on expression in E. coli, not soluble:
MGSDKIHHHHHHMHKVMISRIKGTQDIAFEDIDYWHFAEEIIRNISHKYAFTEIRTPIFEATELFKRSVGESTDVVQKEMYTFEDKGGRSITLRPEGTASVARAFIENSFINLGSPVKLFYSGPMFRYEKPQAGRLRQFHQFGAEILGSESPLADFEIIEMAYSFLKELKINNAKLFINSIGCPACREDYKTALKEYYSDKLAGMCPDCQRRYETNVLRLLDCKIDKGLVQGAPGILDYLDSDCRSHFEELQWYLERAGIDYEVDQFLVRGLDYYTRTAFEIRSSSLGSQDQLVGGGRYDGLVEYIGGKSCPAVGFAIGLERIVMLLKSENVRINGPETSEVAILTFGREESVRGFDYAKRLRKMGVSTFVDVMERNMRNKMKHASRIGAKISLLIGKEEIERDIVTIKVMNDGSQFQVDSDYMADYVVDKLRDIS, MGSDKIHHHHHHMHRDTVFDLIGIGFGPSNLALAVRLAEEAGVPDLAHCFIERQPEFGWHRGMLLDDCRMQISFLKDLVTMRDPKSRFTFINYLFERGRLADFVNLKSFYPTRVEFHDYLAWVAASFDDRVNYGQTVTGIEAVKATARTNEVEALRVFSRDSEGREWQRVTRALSVGIGGGAQVPEAFAALGTHNIVHSSQYLTSIDRVVGPASSARKRVAVIGAGQSAAEVFVDLTRRYPHVDASLIIRSGALKPADDSPFVNEIFSPAFTDVVYAQPRDGRRALIERFRDTNYAVVDRPLIEQIYEMLYLQNVCAEPRHRLLANTGIETAVRTVNGRIELTLRDRLNGHARAEQFDALVLATGYRRDTHLDLLEGLAPHLGEALAQGNVERDYRLATPASFKPRIYLQGCCEDSHGLSDTLLSVLALRSDEIAASLAHHAAQDRSAGRAGEAQANATAASRMAFAL, MGSDKIHHHHHHMHTFLASSSMQLSVPPNHFQSMKIVALGDSLIYGFGDPEKGGWIEQLRRWWMLPDSAGHVLYNLGVRGDRTQQVAQRLEVEFRHRGELRNRVPDLIILSVGVNDSARLARPDGRSYTDFTLFEKEIATLLDLAQQLCPVLFVGMVPVDEAKMPFLDCFYYNHVDQYRYKEATRLACTKRQIPYLDIFEKWMERGENWRLKRLSEDGLHPNTLGYQALLEDVINWDAIHSVGFANAAYHSQFNYHLKQS, MGSDKIHHHHHHMIAKIIMGGGKMIKRVKTGIPGMDEILHGGIPERNIVLISGGPGTGKTIFSQQFIWNGLQMGEPGIYVALEEHPVQVKKNMEVFGWNVDPFEKEGKFAIVDAFTGGIGEYAEKEKYVVRDIDDVRELAEVLKRAVRETQAKRVVIDSVTTLYITKPAMARSIIFQLKRILSGLGCTSLFVSQVSVTEKGFGGPGVEHGVDGIIRLDLDEIDGELKRSLIVWKMRGTSHSMRRHPFEITDKGIVIYPSEGGEGR, MGSDKIHHHHHHMIASPEPEYLTPEEYLQLEEASPIKHEYINGYAYAMAGATDAHVTVAGNLFVLLRNHVRGSGCRVYIADMKARIESLNRYYYPDVMVTCDQRDQETPNHKRFPCLIVEVLSNSTEAFDRGDKFVDYQEIETLKEYVLINTKRQRVECFKRGDHGLWILQSYTEQDKIFRLNSVDFEGAIAELYEDVIFEQTTL, MGSDKIHHHHHHMIDNIMAILEPVIGRTIKRKISTMSGKKLPFIAGHKLLYTCNLRCDMCPFWRRKDEKLLSLEEEIKMMDSLASAGVSFMGFEGGEPLLRNDLEDILKESHKRFHTSLVTNGWLLKGRASSISRYLDYLFVSIDGRKETHDKQRGVPSSFDHAIEGIKEAKKYVPVAMSTTITTNNMDDIKYVVNLAEELGIGVNIQVSYDYSTADKLSPDRKKLYDLLLDLKKMKEDGAPIVNSKEYFDTLVNSWYYGIPWACKPWSTVNIDPQGRIVMPCYVLNEYAGEKKVWEIDIKELWNTYDWKPYESCNKCSLSCYLEPSIFSWRKPSMVSERIFGSIADYIASIF, MGSDKIHHHHHHMIDVLVIGGGNAALCAALTAREAGASVTLLEAAPREWRGGNSQHTRNLRCMHDEPQDVLVDAYPEEEFWQDLLKVTGGITDEHLARLVIRHSSSCRDWMRRHGVNFQPPLSGTLHLSRTNAFFMGGGKALVNAYYRSARQLGVEIRYETPVDSLELDDNGNFIAAHTSSGRIEARSCVLACGGFESNREWLREAWGQNERGEWPGENFLIRGTRFNQGVLLKFLMQHGADIIGDPSQGHCVAIDARAPLYDGGICTRIDCVSLGIVVNRDAVRFYDEGEDFWPKRYAIWGRLTALQPGQIAYSIIDAKAIGRFMPPVFPGIQADTLPELARKIGLDEAQFVQTVETYNAACRIGTFDHTVLDDCHTENLQPAKTHWARPIDTGPFYAFAVRPGITFTYLGLKVDETAAVRFNGRPSENLFVAGEMMAGNVLGKGYTAGVGMSIGTAFGRIAGTQAAKAALQRHQTGALHEAA, MGSDKIHHHHHHMIEIGKRCTLEIVKRVDFGVYLNAHEFGQVLLPNKVAPQGCEVGDSVEVFLYLDSEDMVIATTKRPKAQVGQFAYLKAVATGPYGAFLDWGLDKDLMLPFGEQHREIEVGRSYLVYVYVNSADDRIVASSKIDKFLDRTPPPYRNGQEVSLIIAGTTDLGYKAIIDNGHWGVLYKNEVYQPLKFGQRIKGFIKRVRSDDKIDLILQRGAKEELDKHATAILMKLNQAGGFLPLTDKTDAEVIYAELAMSKKAFKKSIGGLYKQQKIAIEADGIRLTE, MGSDKIHHHHHHMIELDNIKICPLAGIDDAIIIQSLNKASLTTSTSAIGPAVAEMVTRHGAVLLRGFAPEGTSAMAALFASLQWKPLQYTYRSTPRTSVSEGIYTATEFPASEEIMLHSENAFQADWPTRIGFHCAVPARAGGETPIGSLEKITARIDTGLFDEFRRRGVSYVRNYSDYVDLPWQVVFQSSDRGDVEEYCKNHGIGFEWRNSGLRTWQACQGTATHPERGNEVWFNQAHMFHYTALGPEMASNLLSIFGEEELPRNAYYGDGGVIPKDAVEHIREAFSAERASFGWEKDDILLLDNMRYCHGRNPFEGPRQVLVSMGRGYASVVDSSH, MGSDKIHHHHHHMIELERVCKDYHTRQGMRRVLNRIDLRVKQGEKVGILGRNGAGKSTLIRMISGAELPTEGRIRRSMNVSWPLAFGGAFQGSLTGMDNLRFICRVYGADPKAAEPFVQEFSELGYYLREPVKSYSAGMRARLAFAISMAIEFDCFLIDEIVAVGDSRFHAKCHHELFEQRKDRALIIVSHDASYIRQHCDRASVLIEGKLHSFDSVEDAYTFYQESTA, MGSDKIHHHHHHMIERLELRNLTVFTGLTLELSPKINVIIGENGTGKTHLLKAAYGLCAGAPLFKNKPDTGDDELEAALTAKLLRLFMPLDDKLGKMHRQGATDQAYLSAKFAGGQKIAATFFNNSKALAVQDRANYEKYQAEAVFIPTKEVLSFMKGFNSLYEKYGLSFDQTYQDICLLLDLPEVRPETLHEKSKWAMAEIEGICGGRFVFYGGGKVTFKTENAEYSANSMAEGFRKAGILSRLLETGAIQPGVSGPLFWDEPESNLNPKLMKLLVQILLELSRNGQQIILATHDYVLLKWFDLLMDKGKDDHVRFHSLYRDADTSEIKVASTEDYLKITPNPIDEAFGFLINQEIENDMGGLGK, MGSDKIHHHHHHMIETQKEQERALLVGVELQQTDNFDMSMEELASLAKTAGALVKGVYTQKREKYDSKTFVGSGKLDEIAQMVEADEIDTVIVNNRLTPRQNVNLEEILGVKVIDRMQLILDIFAMRARSHEGKLQVHLAQLKYMLPRLVGQGIMLSRQAGGIGSRGPGESQLELNRRSIRNQIHDIERQLKTVEKNRATVRERRLQSGVFKIGLIGYTNAGKSTIMNVMTDKRQYEADELFATLDATTKQINLADKFNVTLTDTVGFIQDLPTELISAFKSTLEESMNVDLLLHIIDASDPNHSEQEQVVLDILKDLDMLDIPRLALYNKLDKTDDSFTPSQFPHVMLSAKDENAKGHIQMMVLAKIKTMFERFEVRVPLAESYKLHDLATLALIENRTYEEDVEVVSGYIASANKWKLEEFYDGLS, MGSDKIHHHHHHMIGKIEPLGTSTGKILYNSHCQNILDLSVAETMEIFKSSGVILFRDFGVTPKQMKDFSEQFSGKHIIDFTKVSIDSDKYVNFVDGGMDGLIPHCENSCFPFRPDVIWFCCTVPAEQEGETLFWDGIRVWEELSQESKQLFLSKQLKFSYKNVPVDILKGIIGSNANTIDDIKQRLDSVDGVSYQFNDDKTVSVEYTCSSVVNNKYNHQNAFANHFWVYQKRTEEAIFDDGSRASDEVADEIERIFDKLTEKIPWKAGDLVMMDNSRFLHGRGAFTDNRRQVFTTLSNLKF, MGSDKIHHHHHHMIHFVPPHLEKVRAKLPEIAPTVDVILANLEDAIPADAKGAALAGLVAMSREVDFKALGVGFWTRINCLNSPWHLDEIATIVEKAGDKIDVIMVPKVEGPWDIFYMDQLLASLEAKHGVTRPILLHAILETAEGVMNVEAIAAASPRMQGISLGPADLAASRAMKTTRVGGGHPGYRVIEDPHADGSARVSVQQDLWHYTFAKMVDACAAHGIKPFYGPFGAIDDPVACEQQFRNAFLMGCAGAWSLHPSQIEIAKRVFSPDPAEVAFAKKILEAMPDGTGVAMIDGKMQDDATWKQAKVMVDCARQIAGKDAEYAGLYGL, MGSDKIHHHHHHMIHLAVGRFNIDIIVKLDSIPPIDSSHMTDVLEIMPGGAATNYAVAVTKLGHSAKLLAKVGKSEVVRSLMEKVVELGVGLEYVEELNEKPSATLIFLRNDGTLSMVRRLGASILLTREDVKRRFGLFDVIHFASVSPNVVVRDPYAKLVSYDPGPQAKNIESVDVDILYVNEKEYEMIEDKNIRARFIVIKMGKKGAKIITETEECSVEPIQVEKIVDTTGAGDTFDAAFNVTYSEDKDIVKSLQVASVASGLKVSRIGGISSPTLEEVREYLRKKKPNVICK, MGSDKIHHHHHHMIIDTSCYPTNLVDLAWRHDGEPFSGERLIQMMDGPFTINGKPRRIDKAFIQPPQGNTIYTWTDGEKSGSESIDAYMAYTVEMVKKYPDRFIGCFVYNPRCGVQNGVNAIEHYVKTLGFKMVQFQANMHAYRPDRALDWLRPALQKCAELGVLVKLHTGDGPYSIPTEWVPMMKEFPTVNFIMAHFGVQTGGVYCFEPFQMAMDMPNVYCESGWCLQSRIVEFAKVLPKHKILFGSDTPPNEPGMWLRLLEVLCFEPPQGLNLDEDTLEDYLGNNVARMIGLEPTPVPRTLEEARARLAA, MGSDKIHHHHHHMIKEFNATVRYLESVLESEIDEREFLRISGYSVPMFSRLFSILTDMSLSEYVRLRKLTRAAMDIREGQAKIIDIAFKYGYESSDSFAFAFKQFHQISPSQVRKGLPFKVLLPLQLSLTIQGGKEMDVRIEKKAGFTVAGLLRTAISNEVCPQVWEDLFKNHTYEELAALGSGQSFGVCTLAQADETINYMAAYDVTDSEKATKLGLELLDVHEADYAIFTLIGPVPQSIHAGWRYALETFFPEHGYRHSGAPDFEYYFEGDMSSPDYQMELWIPIVKA, MGSDKIHHHHHHMIKVSQLTVRYGELKAVEDLSLEVQRGEILSLVGPSGCGKTTVVKAILGLIPYEGKIEIFTSRLGYCPQKDVLFDWMTVYENAVLPLVLRKEQPPSNIKELFERFGLSGFEEKRPYQLSGGMRQKLSLLRAVLSGEELLVLDEPFSSVDAYTRKKLQIWLSEIVHRMKSTVVLITHDVEEAVFLSDRILILSDRPARILKEIRVPFSKPRTIKTFSDPRFSEIEEEVLETLMNQP, MGSDKIHHHHHHMILSKTGIRHKEDLVPPANGVDVGIIKIGDGRVMSVTTDPFYFDPVFGYEDSAWFAYHILASDLLTSGANPDYMTVDLNLPLSMTDEEISRMWNAFTEEAARFGTSIITGHTARYAGTSFPMIGGITAMGFIGEDEYVTSAMARPGDKVVLTKTPAIEAAALLTRLFPGTIKAKLGDELFSYGVDLFRKLTTVHESLVCKRFGLRTRVTAMHDVTEGGLLGALFEIADSSGNGIRIHEDSIKVDDYVKRVCSIFSIDPLMAISEGALLITVKPDHAEDLVSSLKANGIDANVIGEMTADPSERIIVGREKRTIGPPQKDPFWTAVEFGISEDWK
